{
  "source": "patent US20170052184A1",
  "about": "(published 2017)",
  "binders": {"B1": {"name": "HCV Neo4 monoclonal antibody (antibody, V domains shown)", "VH": "QIQLKESGPAVIKPSQSLSLTCIVSGFSITSSVYCWQWIRQPPGKGLEWMGRICYDGSVDYSPSITSRGTISRDTSLNKVFFQLSSVTNEDTAMYYCSRENHIDYYDTTYPSFDVWGAGTTVTVSS", "VL": "DIVLTQSPASLIVSLGQRATISCRASKSVNEYGYTYMHWYQQKPGLPPKLLIYLASNLDSGVPARFSGSGSGTDFTLNIHPVEEEDAATYYCQHSRELPYTFGGGTKLEIKR"}},
  "key": {"[1]": {"molecular_target": "T1, C113WT biotin labeled HCV core peptide (hepatitis C virus, also: biotin labeled, position not given here)", "T1 peptide": "RGSRPSWGPTD", "assay": "EIA; Ab 500 ng/mL captured on anti-mouse Fc; bt-peptide 500 ng/mL"}, "[2]": {"molecular_target": "T2, Mut1T110N biotin labeled HCV core peptide (hepatitis C virus, biotin labeled)", "T2 peptide": "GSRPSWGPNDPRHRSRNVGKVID", "assay": "EIA; Ab 500 ng/mL captured on anti-mouse Fc; bt-peptide 500 ng/mL"}, "[3]": {"molecular_target": "T3, Mut6T110S biotin labeled HCV core peptide (hepatitis C virus)", "assay": "EIA; Ab 500 ng/mL captured on anti-mouse Fc; bt-peptide 500 ng/mL"}, "[4]": {"molecular_target": "T4, WT1STHV biotin labeled HCV core peptide (hepatitis C virus, biotin labeled)", "T4 peptide": "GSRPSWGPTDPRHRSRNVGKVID", "assay": "EIA; Ab 500 ng/mL captured on anti-mouse Fc; bt-peptide 500 ng/mL"}, "[5]": {"molecular_target": "T5, C113T109N biotin labeled HCV core peptide (hepatitis C virus, also: biotin labeled, position not given here)", "T5 peptide": "RGSRPSWGPND", "assay": "EIA; Ab 500 ng/mL captured on anti-mouse Fc; bt-peptide 500 ng/mL"}, "[6]": {"molecular_target": "T1, C113WT biotin labeled HCV core peptide", "assay": "EIA; Ab 250 ng/mL captured on anti-mouse Fc; bt-peptide 500 ng/mL"}, "[7]": {"molecular_target": "T2, Mut1T110N biotin labeled HCV core …", "assay": "EIA; Ab 250 ng/mL captured on anti-mouse Fc; bt-peptide 500 ng/mL"}, "[8]": {"molecular_target": "T3, Mut6T110S biotin labeled HCV core …", "assay": "EIA; Ab 250 ng/mL captured on anti-mouse Fc; bt-peptide 500 ng/mL"}, "[9]": {"molecular_target": "T4, WT1STHV biotin labeled HCV core peptide", "assay": "EIA; Ab 250 ng/mL captured on anti-mouse Fc; bt-peptide 500 ng/mL"}, "[10]": {"molecular_target": "T5, C113T109N biotin labeled HCV core …", "assay": "EIA; Ab 250 ng/mL captured on anti-mouse Fc; bt-peptide 500 ng/mL"}, "[11]": {"molecular_target": "T2, Mut1T110N biotin labeled HCV core …", "assay": "EIA; Ab 2000 ng/mL captured on anti-mouse Fc; bt-peptide 500 ng/mL"}, "[12]": {"molecular_target": "T3, Mut6T110S biotin labeled HCV core …", "assay": "EIA; Ab 2000 ng/mL captured on anti-mouse Fc; bt-peptide 500 ng/mL"}, "[13]": {"molecular_target": "T1, C113WT biotin labeled HCV core peptide", "assay": "EIA; Ab 1.953 ng/mL captured on anti-mouse Fc; bt-peptide 500 ng/mL"}, "[14]": {"molecular_target": "T2, Mut1T110N biotin labeled HCV core …", "assay": "EIA; Ab 1.953 ng/mL captured on anti-mouse Fc; bt-peptide 500 ng/mL"}, "[15]": {"molecular_target": "T3, Mut6T110S biotin labeled HCV core …", "assay": "EIA; Ab 1.953 ng/mL captured on anti-mouse Fc; bt-peptide 500 ng/mL"}, "[16]": {"molecular_target": "T4, WT1STHV biotin labeled HCV core peptide", "assay": "EIA; Ab 1.953 ng/mL captured on anti-mouse Fc; bt-peptide 500 ng/mL"}, "[17]": {"molecular_target": "T5, C113T109N biotin labeled HCV core …", "assay": "EIA; Ab 1.953 ng/mL captured on anti-mouse Fc; bt-peptide 500 ng/mL"}, "[18]": {"molecular_target": "T1, C113WT biotin labeled HCV core peptide", "assay": "EIA; Ab 15.625 ng/mL captured on anti-mouse Fc; bt-peptide 500 ng/mL"}, "[19]": {"molecular_target": "T2, Mut1T110N biotin labeled HCV core …", "assay": "EIA; Ab 15.625 ng/mL captured on anti-mouse Fc; bt-peptide 500 ng/mL"}, "[20]": {"molecular_target": "T3, Mut6T110S biotin labeled HCV core …", "assay": "EIA; Ab 15.625 ng/mL captured on anti-mouse Fc; bt-peptide 500 ng/mL"}, "[21]": {"molecular_target": "T4, WT1STHV biotin labeled HCV core peptide", "assay": "EIA; Ab 15.625 ng/mL captured on anti-mouse Fc; bt-peptide 500 ng/mL"}, "[22]": {"molecular_target": "T5, C113T109N biotin labeled HCV core …", "assay": "EIA; Ab 15.625 ng/mL captured on anti-mouse Fc; bt-peptide 500 ng/mL"}, "[23]": {"molecular_target": "T1, C113WT biotin labeled HCV core peptide", "assay": "EIA; Ab 0.977 ng/mL captured on anti-mouse Fc; bt-peptide 500 ng/mL"}, "[24]": {"molecular_target": "T2, Mut1T110N biotin labeled HCV core …", "assay": "EIA; Ab 0.977 ng/mL captured on anti-mouse Fc; bt-peptide 500 ng/mL"}, "[25]": {"molecular_target": "T3, Mut6T110S biotin labeled HCV core …", "assay": "EIA; Ab 0.977 ng/mL captured on anti-mouse Fc; bt-peptide 500 ng/mL"}, "[26]": {"molecular_target": "T4, WT1STHV biotin labeled HCV core peptide", "assay": "EIA; Ab 0.977 ng/mL captured on anti-mouse Fc; bt-peptide 500 ng/mL"}, "[27]": {"molecular_target": "T5, C113T109N biotin labeled HCV core …", "assay": "EIA; Ab 0.977 ng/mL captured on anti-mouse Fc; bt-peptide 500 ng/mL"}},
  "note": "Ends that are not written are not given here.",
  "data": [
    {"binder": "B1", "values": [
      {"measurement": "signal at 492 nm", "setting": "[1]", "result": 0.0561, "unit": "OD 492 nm"},
      {"measurement": "signal at 492 nm", "setting": "[2]", "result": 0.065, "unit": "OD 492 nm"},
      {"measurement": "signal at 492 nm", "setting": "[3]", "result": 1.17, "unit": "OD 492 nm"},
      {"measurement": "signal at 492 nm", "setting": "[4]", "result": 1.91, "unit": "OD 492 nm"},
      {"measurement": "signal at 492 nm", "setting": "[5]", "result": 0.0803, "unit": "OD 492 nm"},
      {"measurement": "signal at 492 nm", "setting": "[6]", "result": 0.0607, "unit": "OD 492 nm"},
      {"measurement": "signal at 492 nm", "setting": "[7]", "result": 0.089, "unit": "OD 492 nm"},
      {"measurement": "signal at 492 nm", "setting": "[8]", "result": 1.15, "unit": "OD 492 nm"},
      {"measurement": "signal at 492 nm", "setting": "[9]", "result": 1.99, "unit": "OD 492 nm"},
      {"measurement": "signal at 492 nm", "setting": "[10]", "result": 0.111, "unit": "OD 492 nm"},
      {"measurement": "signal at 492 nm", "setting": "[11]", "result": 0.0882, "unit": "OD 492 nm"},
      {"measurement": "signal at 492 nm", "setting": "[12]", "result": 1.17, "unit": "OD 492 nm"},
      {"measurement": "signal at 492 nm", "setting": "[13]", "result": 0.0765, "unit": "OD 492 nm"},
      {"measurement": "signal at 492 nm", "setting": "[14]", "result": 0.0728, "unit": "OD 492 nm"},
      {"measurement": "signal at 492 nm", "setting": "[15]", "result": 0.0717, "unit": "OD 492 nm"},
      {"measurement": "signal at 492 nm", "setting": "[16]", "result": 0.409, "unit": "OD 492 nm"},
      {"measurement": "signal at 492 nm", "setting": "[17]", "result": 0.0853, "unit": "OD 492 nm"},
      {"measurement": "signal at 492 nm", "setting": "[18]", "result": 0.0697, "unit": "OD 492 nm"},
      {"measurement": "signal at 492 nm", "setting": "[19]", "result": 0.0771, "unit": "OD 492 nm"},
      {"measurement": "signal at 492 nm", "setting": "[20]", "result": 0.25, "unit": "OD 492 nm"},
      {"measurement": "signal at 492 nm", "setting": "[21]", "result": 1.42, "unit": "OD 492 nm"},
      {"measurement": "signal at 492 nm", "setting": "[22]", "result": 0.0736, "unit": "OD 492 nm"},
      {"measurement": "signal at 492 nm", "setting": "[23]", "result": 0.0584, "unit": "OD 492 nm"},
      {"measurement": "signal at 492 nm", "setting": "[24]", "result": 0.0619, "unit": "OD 492 nm"},
      {"measurement": "signal at 492 nm", "setting": "[25]", "result": 0.0644, "unit": "OD 492 nm"},
      {"measurement": "signal at 492 nm", "setting": "[26]", "result": 0.22, "unit": "OD 492 nm"},
      {"measurement": "signal at 492 nm", "setting": "[27]", "result": 0.0784, "unit": "OD 492 nm"}
    ]}
  ]
}
